Assay results reported in patent publication US20240010735A1 (EISAI R AND D MANAGEMENT, published 2024).

T1: human EphA1 extracellular region-SEAP-His protein (human, UniProt P21709 26-547)
T1 construct: extracellular domain; also called Eph receptor extracellular region-SEAP-His protein; not shown: secretory alkaline phosphatase (SEAP); histidine tag
T1 sequence (looked up): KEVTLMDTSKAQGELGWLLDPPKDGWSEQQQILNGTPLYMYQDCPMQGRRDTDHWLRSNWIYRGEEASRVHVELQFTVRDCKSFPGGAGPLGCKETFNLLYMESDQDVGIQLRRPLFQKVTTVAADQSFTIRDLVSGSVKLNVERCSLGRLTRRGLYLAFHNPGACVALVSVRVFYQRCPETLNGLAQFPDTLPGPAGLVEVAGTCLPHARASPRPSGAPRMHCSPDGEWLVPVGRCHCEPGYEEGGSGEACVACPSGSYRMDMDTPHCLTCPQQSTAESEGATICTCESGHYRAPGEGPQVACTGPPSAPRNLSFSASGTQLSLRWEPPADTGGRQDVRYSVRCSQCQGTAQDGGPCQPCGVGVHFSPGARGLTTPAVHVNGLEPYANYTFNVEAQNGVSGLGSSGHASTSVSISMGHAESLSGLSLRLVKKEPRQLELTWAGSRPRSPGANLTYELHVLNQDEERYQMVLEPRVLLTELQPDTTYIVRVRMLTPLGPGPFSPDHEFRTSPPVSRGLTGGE

T2: human EphA8 extracellular region-SEAP-His protein (human, UniProt P29322 28-542)
T2 construct: extracellular domain; also called Eph receptor extracellular region-SEAP-His protein; not shown: secretory alkaline phosphatase (SEAP); histidine tag
T2 sequence (looked up): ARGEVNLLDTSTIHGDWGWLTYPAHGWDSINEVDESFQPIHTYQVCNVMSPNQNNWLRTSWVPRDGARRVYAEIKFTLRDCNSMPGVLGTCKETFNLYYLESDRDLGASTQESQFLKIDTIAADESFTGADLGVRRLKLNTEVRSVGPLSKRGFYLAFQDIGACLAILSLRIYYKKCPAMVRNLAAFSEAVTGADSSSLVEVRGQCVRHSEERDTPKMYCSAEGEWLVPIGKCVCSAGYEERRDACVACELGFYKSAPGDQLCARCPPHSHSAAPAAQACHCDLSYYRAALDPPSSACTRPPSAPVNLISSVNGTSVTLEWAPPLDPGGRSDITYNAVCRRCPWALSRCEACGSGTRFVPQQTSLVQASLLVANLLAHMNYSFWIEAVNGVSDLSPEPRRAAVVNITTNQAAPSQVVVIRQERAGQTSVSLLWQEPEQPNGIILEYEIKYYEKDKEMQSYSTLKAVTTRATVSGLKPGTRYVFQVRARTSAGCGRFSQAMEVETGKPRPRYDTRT

T3: human EphB1 extracellular region-SEAP-His protein (human, UniProt P54762 18-540)
T3 construct: extracellular domain; also called Eph receptor extracellular region-SEAP-His protein; not shown: secretory alkaline phosphatase (SEAP); histidine tag
T3 sequence (looked up): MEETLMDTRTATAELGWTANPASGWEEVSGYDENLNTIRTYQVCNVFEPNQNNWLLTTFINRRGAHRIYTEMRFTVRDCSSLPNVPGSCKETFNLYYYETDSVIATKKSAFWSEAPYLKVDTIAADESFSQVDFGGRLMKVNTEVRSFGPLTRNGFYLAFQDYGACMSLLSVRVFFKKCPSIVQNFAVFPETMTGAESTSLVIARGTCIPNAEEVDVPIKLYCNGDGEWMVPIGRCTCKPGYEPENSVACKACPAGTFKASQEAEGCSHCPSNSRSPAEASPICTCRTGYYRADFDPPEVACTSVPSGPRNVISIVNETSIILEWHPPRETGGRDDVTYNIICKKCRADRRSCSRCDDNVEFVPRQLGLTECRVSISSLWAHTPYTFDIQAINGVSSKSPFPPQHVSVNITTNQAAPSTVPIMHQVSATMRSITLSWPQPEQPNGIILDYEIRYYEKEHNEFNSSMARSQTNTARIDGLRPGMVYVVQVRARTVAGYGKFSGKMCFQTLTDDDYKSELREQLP

B1: humanized anti-EphA4 monoclonal antibody (antibody B) (antibody, human IgG2, V domains shown)
VH: QVQLVESGGGVVQPGRSLRLSCAVSGFSLTRFGVHWVRQAPGKGLEWVAVIWRGGSTDYNAAFMSRLTISKDNSKNTVYLQMNSLRAEDTAVYYCAKESLFGVYYDYGYYSMDYWGQGTTVTVSS
VL: DIQMTQSPSSLSASVGDRVTITCRASQEISGYLSWLQQKPGKAPKRLIYAASTLDSGVPSRFSGSRSGTEYTLTISSLQPEDFATYYCLQYASYPLTFGGGTKVEIKR
notes: expressed in Expi293F cells; also called humanized antibody of antibody A; HK2-42 / L1-8
B2: mouse anti-EphA4 monoclonal antibody (antibody A) (antibody, mouse IgG1, kappa, V domains shown)
VH: QVQLKQSGPSLVQPSQSLSITCTVSGFSLTRYGVHWVRQSPGKGLEWLGVIWRGGSTDYNAAFMSRLSITKDNSKSQVFFKMNSLQADDTAIYYCAKESLFGVYYDYGYYSMDYWGQGTSVTVSS
VL: DIQMTQSPSSLSASLGERVSLTCRASQEISGYLSWLQQKPDGTIKRLIYAASTLDSGVPKRFSGSRSGSDYSLTISSLESEDFADYYCLQYASYPLTFGAGTKLELKR
notes: purified from hybridoma supernatant

Columns and labels:
[1] = molecular target: T1, human EphA1 extracellular …; assay: ELISA: SEAP-His proteins (1 nM) captured on anti-6-His antibody, antibody B 10 µg/mL with human IgG 100 µg/mL, HRP anti-human IgG, OD450 as % of human EphA4-SEAP-His
[2] = molecular target: T4, human EphA5 extracellular region-SEAP-His protein (human, UniProt P54756 25-573); assay: as above
T4 construct: extracellular domain; also called Eph receptor extracellular region-SEAP-His protein; not shown: secretory alkaline phosphatase (SEAP); histidine tag

[3] = molecular target: T2, human EphA8 extracellular …; assay: as above
[4] = molecular target: T3, human EphB1 extracellular …; assay: as above
[5] = molecular target: T5, human EphA4 extracellular region-SEAP-His protein (human, UniProt P54764 20-547); assay: SPR (Biacore T200): human EphA4 extracellular region-SEAP-His captured on anti-His antibody, antibody A 1.6-100 nM as analyte, 1:1 fit
T5 construct: also called human EphA4 extracellular region-SEAP-His 10; not shown: secretory alkaline phosphatase (SEAP); histidine tag
Protocol: The binding affinity of antibody A against mouse and human EphA4 was determined by surface plasmon resonance (SPR method) employing Biacore T200 (GE Healthcare). First, anti-His antibodies (GE Healthcare, 28-9950-56) were fixed to a sensor chip CM5. Fixation was carried out by amine coupling method employing N-hydroxysuccinimide (NHS) and N-ethyl-N′-(3-dimethylaminopropyl) carbodiimide hydrochloride salt (EDC), and ethanolamine was employed for blocking (the sensor chip and reagents for fixation are all from GE Healthcare). This was diluted with the fixation buffer (10 mM sodium acetate, pH 4.5) to 3.5 μg/mL, and fixed onto the sensor chip according to the protocol accompanying Biacore T200. Mouse or human EphA4 extracellular region-SEAP-His 10 was diluted with the running buffer HBS-EP (GE Healthcare, BR-1001-88), and the solution was sent and captured onto the flow cell for 120 seconds (about 10 RU of captured amount). […] Fitting analysis by 1:1 binding model employing the software accompanying the system, BIA evaluation software, was carried out against the binding reaction curve obtained, and the binding affinity (KD=kd/ka) against mouse and human EphA4 was calculated.

T5 sequence (P54764 20-547): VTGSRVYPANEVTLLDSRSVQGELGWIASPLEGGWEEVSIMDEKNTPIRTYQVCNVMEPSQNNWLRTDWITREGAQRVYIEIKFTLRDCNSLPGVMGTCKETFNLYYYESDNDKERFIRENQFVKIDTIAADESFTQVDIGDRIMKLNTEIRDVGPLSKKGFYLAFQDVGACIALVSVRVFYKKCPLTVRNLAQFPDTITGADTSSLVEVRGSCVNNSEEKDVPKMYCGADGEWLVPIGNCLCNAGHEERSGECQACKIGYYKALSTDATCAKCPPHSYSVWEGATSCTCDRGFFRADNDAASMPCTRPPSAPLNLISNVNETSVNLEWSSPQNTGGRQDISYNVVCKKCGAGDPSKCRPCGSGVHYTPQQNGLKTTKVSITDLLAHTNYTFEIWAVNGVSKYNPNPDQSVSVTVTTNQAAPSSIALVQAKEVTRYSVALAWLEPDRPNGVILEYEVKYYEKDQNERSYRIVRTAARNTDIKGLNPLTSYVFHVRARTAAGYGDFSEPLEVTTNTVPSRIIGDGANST
T4 sequence (P54756 25-573): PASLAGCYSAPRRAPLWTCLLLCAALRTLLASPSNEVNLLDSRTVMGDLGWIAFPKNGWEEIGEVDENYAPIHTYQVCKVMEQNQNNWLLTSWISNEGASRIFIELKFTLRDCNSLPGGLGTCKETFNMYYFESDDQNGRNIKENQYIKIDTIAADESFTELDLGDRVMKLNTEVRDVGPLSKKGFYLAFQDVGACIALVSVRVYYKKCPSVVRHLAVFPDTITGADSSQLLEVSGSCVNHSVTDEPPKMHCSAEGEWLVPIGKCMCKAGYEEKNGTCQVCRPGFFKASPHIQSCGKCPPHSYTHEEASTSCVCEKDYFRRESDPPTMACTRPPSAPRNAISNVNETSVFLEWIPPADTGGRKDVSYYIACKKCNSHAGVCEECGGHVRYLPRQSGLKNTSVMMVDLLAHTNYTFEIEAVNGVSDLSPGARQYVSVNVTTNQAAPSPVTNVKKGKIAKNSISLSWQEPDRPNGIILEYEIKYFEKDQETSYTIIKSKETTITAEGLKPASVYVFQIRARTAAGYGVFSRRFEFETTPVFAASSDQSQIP

| Binder | binding result [1] | binding result [2] | binding result [3] | binding result [4] | koff [5] [s⁻¹] | kon [5] [M⁻¹ s⁻¹] |
| --- | --- | --- | --- | --- | --- | --- |
| B1 | no binding (tested: 10 µg/mL) | no binding (tested: 10 µg/mL) | no binding (tested: 10 µg/mL) | no binding (tested: 10 µg/mL) |  |  |
| B2 |  |  |  |  | 0.000448 | 379000 |
